Our source for the abundance fitness values is the Human Domainome abundance scans (Beltran et al. 2025).

± gives the uncertainty stated by the source.

The nature of the series: abundance fitness (aPCA) (normalised: wild type 0, dead -1); higher = more abundant; growth selection in yeast, the domain comes from the species named. To be noted: Homo sapiens.
As for “Transcriptional activator Myb A167C, P10242”, the abundance fitness was -0.17 ± 0.12.
“Transcriptional activator Myb A167D, P10242” yielded an abundance fitness of -0.177 ± 0.16.
Take “Transcriptional activator Myb A167E, P10242”: the abundance fitness amounted to 0.009 ± 0.13.
Next, “Transcriptional activator Myb A167F, P10242”: -0.092 ± 0.12; “Transcriptional activator Myb A167G, P10242”: 0.045 ± 0.06; “Transcriptional activator Myb A167H, P10242”: 0.258 ± 0.24.
To “Transcriptional activator Myb A167I, P10242” belongs -0.253 ± 0.22.
“Transcriptional activator Myb A167K, P10242” returned an abundance fitness of -0.124 ± 0.11.
Next, “Transcriptional activator Myb A167L, P10242”: -0.224 ± 0.079; “Transcriptional activator Myb A167M, P10242”: -0.313 ± 0.15.
Next, “Transcriptional activator Myb A167N, P10242”: -0.058 ± 0.11; “Transcriptional activator Myb A167P, P10242”: 0.037 ± 0.12; “Transcriptional activator Myb A167Q, P10242”: 0.015 ± 0.14.
To “Transcriptional activator Myb A167R, P10242” belongs -0.146 ± 0.069; to “Transcriptional activator Myb A167S, P10242”, -0.095 ± 0.09.
“Transcriptional activator Myb A167T, P10242” gave an abundance fitness of -0.126 ± 0.12.
Substance “Transcriptional activator Myb A167V, P10242” gave an abundance fitness of -0.083 ± 0.1.
Next, “Transcriptional activator Myb A167W, P10242”: -0.27 ± 0.063.
To “Transcriptional activator Myb A167Y, P10242” belongs -0.172 ± 0.12.
Next, “Transcriptional activator Myb A170C, P10242”: -0.137 ± 0.13; “Transcriptional activator Myb A170D, P10242”: -0.692 ± 0.12.
“Transcriptional activator Myb A170E, P10242” had an abundance fitness of -0.285 ± 0.12.
To “Transcriptional activator Myb A170F, P10242” belongs -0.896 ± 0.19; to “Transcriptional activator Myb A170G, P10242”, -0.229 ± 0.058; to “Transcriptional activator Myb A170H, P10242”, -0.716 ± 0.26.
To “Transcriptional activator Myb A170I, P10242” belongs -1.45 ± 0.42; to “Transcriptional activator Myb A170K, P10242”, -0.581 ± 0.14.
“Transcriptional activator Myb A170L, P10242” displayed an abundance fitness of -0.743 ± 0.082.
To “Transcriptional activator Myb A170M, P10242” belongs -0.393 ± 0.11; to “Transcriptional activator Myb A170N, P10242”, -0.655 ± 0.28.
Consider “Transcriptional activator Myb A170P, P10242”, for which the abundance fitness is -0.809 ± 0.18.
“Transcriptional activator Myb A170Q, P10242” yielded an abundance fitness of -0.056 ± 0.094.
Next, “Transcriptional activator Myb A170R, P10242”: -0.516 ± 0.059.
For the substance “Transcriptional activator Myb A170S, P10242”, the abundance fitness is -0.038 ± 0.087.
Take “Transcriptional activator Myb A170T, P10242”: the abundance fitness is -0.771 ± 0.12.
“Transcriptional activator Myb A170V, P10242” displayed an abundance fitness of -0.428 ± 0.063.
Regarding “Transcriptional activator Myb A170W, P10242”, the abundance fitness is -0.811 ± 0.12.
To “Transcriptional activator Myb A170Y, P10242” belongs -1.08 ± 0.18; to “Transcriptional activator Myb A180C, P10242”, -0.021 ± 0.12; to “Transcriptional activator Myb A180D, P10242”, -0.022 ± 0.12.
Next, “Transcriptional activator Myb A180E, P10242”: 0.062 ± 0.098; “Transcriptional activator Myb A180G, P10242”: -0.244 ± 0.049; “Transcriptional activator Myb A180H, P10242”: -0.23 ± 0.097.
“Transcriptional activator Myb A180I, P10242” showed an abundance fitness of -0.005 ± 0.32.
For “Transcriptional activator Myb A180K, P10242”, the abundance fitness is -0.266 ± 0.082.
To “Transcriptional activator Myb A180L, P10242” belongs -0.111 ± 0.073.
The substance “Transcriptional activator Myb A180M, P10242” came in with an abundance fitness of -0.058 ± 0.16.
“Transcriptional activator Myb A180N, P10242” registered an abundance fitness of -0.134 ± 0.33.
Next, “Transcriptional activator Myb A180P, P10242”: -0.76 ± 0.12.
“Transcriptional activator Myb A180Q, P10242”: the abundance fitness was -0.002 ± 0.12.
In turn, “Transcriptional activator Myb A180R, P10242” yielded an abundance fitness of -0.327 ± 0.051.
Consider “Transcriptional activator Myb A180S, P10242”, for which the abundance fitness is -0.051 ± 0.083.
Substance “Transcriptional activator Myb A180T, P10242” gave an abundance fitness of -0.174 ± 0.078.
In turn, “Transcriptional activator Myb A180W, P10242” registered an abundance fitness of -0.28 ± 0.11.
To “Transcriptional activator Myb A180Y, P10242” belongs -0.803 ± 0.43; to “Transcriptional activator Myb D152A, P10242”, -0.24 ± 0.066; to “Transcriptional activator Myb D152C, P10242”, -0.833 ± 0.14.
To “Transcriptional activator Myb D152E, P10242” belongs 0.105 ± 0.077; to “Transcriptional activator Myb D152F, P10242”, -0.752 ± 0.12; to “Transcriptional activator Myb D152G, P10242”, -0.452 ± 0.053.
In turn, “Transcriptional activator Myb D152H, P10242” returned an abundance fitness of -0.695 ± 0.22.
Substance “Transcriptional activator Myb D152K, P10242” gave an abundance fitness of -0.311 ± 0.1.
The substance “Transcriptional activator Myb D152L, P10242” displayed an abundance fitness of -0.249 ± 0.075.
To “Transcriptional activator Myb D152M, P10242” belongs -0.381 ± 0.15; to “Transcriptional activator Myb D152N, P10242”, -0.227 ± 0.074; to “Transcriptional activator Myb D152Q, P10242”, -0.065 ± 0.12.
Next, “Transcriptional activator Myb D152R, P10242”: -0.519 ± 0.068; “Transcriptional activator Myb D152S, P10242”: -0.287 ± 0.072.
Regarding “Transcriptional activator Myb D152T, P10242”, the abundance fitness was -0.138 ± 0.082.
For the substance “Transcriptional activator Myb D152V, P10242”, the abundance fitness was -0.304 ± 0.067.
“Transcriptional activator Myb D152W, P10242”: the abundance fitness was -0.403 ± 0.098.
Substance “Transcriptional activator Myb D152Y, P10242” returned an abundance fitness of -0.38 ± 0.12.
For “Transcriptional activator Myb D178N, P10242”, the abundance fitness is -0.533 ± 0.35.
Next, “Transcriptional activator Myb E149D, P10242”: -0.008 ± 0.27; “Transcriptional activator Myb E149G, P10242”: -0.143 ± 0.16; “Transcriptional activator Myb E149L, P10242”: 0.009 ± 0.22.
Next, “Transcriptional activator Myb E149N, P10242”: -0.526 ± 0.35; “Transcriptional activator Myb E149R, P10242”: -0.203 ± 0.12; “Transcriptional activator Myb E149S, P10242”: -0.188 ± 0.4.
Next, “Transcriptional activator Myb E149T, P10242”: -0.634 ± 0.43.
For the substance “Transcriptional activator Myb E149W, P10242”, the abundance fitness is -0.719 ± 0.47.
“Transcriptional activator Myb E150A, P10242” registered an abundance fitness of 0.099 ± 0.075.
Next, “Transcriptional activator Myb E150C, P10242”: -0.219 ± 0.1; “Transcriptional activator Myb E150D, P10242”: -0.152 ± 0.095; “Transcriptional activator Myb E150F, P10242”: -0.129 ± 0.16.
Take “Transcriptional activator Myb E150H, P10242”: the abundance fitness was -0.41 ± 0.15.
To “Transcriptional activator Myb E150I, P10242” belongs -0.172 ± 0.12.
To “Transcriptional activator Myb E150K, P10242” belongs 0.117 ± 0.11.
Next, “Transcriptional activator Myb E150L, P10242”: -0.17 ± 0.064.
As to “Transcriptional activator Myb E150M, P10242”, the abundance fitness was -0.097 ± 0.086.
Next, “Transcriptional activator Myb E150N, P10242”: -0.004 ± 0.15; “Transcriptional activator Myb E150P, P10242”: -0.468 ± 0.12; “Transcriptional activator Myb E150Q, P10242”: 0.026 ± 0.14.
To “Transcriptional activator Myb E150R, P10242” belongs 0 ± 0.061; to “Transcriptional activator Myb E150T, P10242”, -0.103 ± 0.1.
